doi:10.1101/2020.06.02.131086

Target: human S100A5 (hA5) (human) (UniProt P33763)
Assay: ITC

Sequence of UniProt P33763 (P33763 whole entry): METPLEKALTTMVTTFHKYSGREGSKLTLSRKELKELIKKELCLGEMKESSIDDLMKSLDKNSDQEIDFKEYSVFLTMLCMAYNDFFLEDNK

B1: α-1-syn peptide (fragment of human α-1-syntrophin) (peptide)
peptide: GAGGERWQRVLLSLAEDV
  Kd: 4.8 µM
  dH (kcal · mol^−1): -4.5
